Measurements as given in PMC10432815.

Tests used:
medaka Opn5m (medaka) [1] = molecular target: medaka Opn5m (medaka)
medaka Opn5m (medaka) [2] = molecular target: medaka Opn5m (medaka); remark: listed apart in the source

Question: Which relative aequorin luminescence (calcium response) after UV light, 293TΔGQ cells cotransfected with OlOpn5m and medaka Gα: against OlGαq, OlGα11a and OlGα11b (medaka Opn5m (medaka) [1]) does the source give for medaka Gα11c (natural protein) here?
Answer: The relative aequorin luminescence (calcium response) after UV light, 293TΔGQ cells cotransfected with OlOpn5m and medaka Gα: against OlGαq, OlGα11a and OlGα11b was 24 fold.

Question: How did the relative aequorin luminescence (calcium response) after UV light, 293TΔGQ cells cotransfected with OlOpn5m and medaka Gα: against OlGαq, OlGα11a and OlGα11b (medaka Opn5m (medaka) [1]) turn out when medaka Gα14a (natural protein) was run?
Answer: Its relative aequorin luminescence (calcium response) after UV light, 293TΔGQ cells cotransfected with OlOpn5m and medaka Gα: against OlGαq, OlGα11a and OlGα11b is 24 fold.

B1: mouse Gα14 (natural protein)
chain: MAGCCCLSAEEKESQRISAEIERQLRRDKKDARRELKLLLLGTGESGKSTFIKQMRIIHGSGYSDEDRKGFTKLVYQNIFTAMQAMIRAMDTLRIQYMCEQNKENAQIIREVEVDKVTALSRDQVAAIKQLWLDPGIQECYDRRREYQLSDSAKYYLTDIERIAMPSFVPTQQDVLRVRVPTTGIIEYPFDLENIIFRMVDVGGQRSERRKWIHCFESVTSIIFLVALSEYDQVLAECDNENRMEESKALFRTIITYPWFLNSSVILFLNKKDLLEEKIMYSHLISYFPEYTGPKQDVKAARDFILKLYQDQNPDKEKVIYSHFTCATDTENIRFVFAAVKDTILQLNLREFNLV
Question: Which relative aequorin luminescence (calcium response) after UV light, ATR-reconstituted OlOpn5m in 293TΔGQ cells: mGα14 against mGαq (medaka Opn5m (medaka) [2]) does the source give for B1 here?
Answer: Its relative aequorin luminescence (calcium response) after UV light, ATR-reconstituted OlOpn5m in 293TΔGQ cells: mGα14 against mGαq is 27 fold.
